Like-named read-outs stand apart in the source and are kept apart here.

The conditions of data set [1]: rat, in vivo; cited from earlier work. An excerpt: Drug administration to the retina and vitreous body is challenging. Drugs applied to the surface of the eye rarely penetrate the ocular surface or enter into the vitreous body and the retina ([Gaudana et al., 2010]). Biological barriers such as the cornea, conjunctiva and the tear film limit penetration and bioavailability of topical drug preparations to the posterior segment of the eye and therefore direct injection of drugs to the vitreous is commonly used to target drugs to the retina ([Ayalasomayajula and Kompella, 2005; Carneiro et al., 2009; Eldaly and Styles, 2009; Yasukawa et al., 2001 ...

In data set [2] the test system is RGC axons. The settings on record: administration of CNTF after ONC; ref Vigneswara et al., 2013; cited from earlier work.
The test system of data set [3] is βIII-tubulin+ retinal neurons. The settings on record: CNTF 440.5 pM, 4 days in culture. The source says:
For all in vitro experiments, adult 6–8-week-old female Sprague–Dawley rats weighing 170–220 g were used. Culture experiments included retinal cells treated with: (1), Neurobasal-A (NBA) alone (Control); and equimolar concentrations of (2), 2.16; (3) 5.4; (4), 10.8 and (5), 21.6 pM PEDF-34/-44; and (6), ciliary neurotrophic factor (CNTF: Peprotech, London, UK), as a positive control at an optimal neuroprotective/axogenic concentration of 440.5 pM, established by us previously ([Ahmed et al., 2009; Douglas et al., 2009]). […] All experiments were performed in triplicate and repeated on three independent occasions.
Mixed adult rat retinal cultures containing enriched populations of retinal neurons, including RGCs, were prepared from 6–8-week-old adult female Sprague–Dawley rats, as described previously ([Ahmed et al., 2006b, 2009, 2010; Douglas et al., 2009; Vigneswara et al., 2013]). Briefly, retinal cells were dissociated using a Papain dissociation kit according to the manufacturer's instructions (Worthington Biochemicals, Lakewood, NJ, USA). […]
The mean number of βIII-tubulin^+ neurons surviving, with neurites and the mean neurite length were quantified as described by us previously ([Vigneswara et al., 2013, 2014]). Briefly, chamber slides were anonymised by a second investigator and βIII-tubulin^+ neuronal soma and neurites quantified in 9 quadrants/well using Axiovision software (Version 4.8; Zeiss) and ImagePro (Version 6.3; Media Cybernetics, Bethesda, MD, USA). Of the 125,000 cells/well plated, the total numbers of neurons in each experiment were determined by βIII-tubulin^+ immunocytochemistry after allowing 30 min for cells to adhere to glass culture slides. […] Neurite outgrowth from at least 180 neurons/condition from the 9 wells was measured, except in control (NBA) cultures, in which a total of 108 neurons were measured.

Data set [4] deals with retinal ganglion cells (RGCs). The settings on record: intravitreal delivery at 0, 7 and 14 days after ONC, equimolar concentrations, 21 days after ONC; ref Vigneswara et al., 2013; cited from earlier work. As for the experimental part: Here we wished to confirm that, in vivo, PEDF-34 was more neuroprotective than full length PEDF. After intravitreal injection of vehicle + 0 nM PEDF-34, 295 ± 15 FG^+ RGC/mm^2 survived 21 days after ONC + PBS (0 nM PEDF-34) (Fig. 2A and B). Increasing the dose of ...

Data set [5] has as its system RGC. The following applies: intravitreal injections, ref Cheng et al., 2002, Kermer et al., 1998, Kurokawa et al., 1999, Monnier et al., 2011, Parrilla-Reverter et al., 2009, cited from earlier work. An excerpt:
Other commonly used retinal neuron/RGC neuroprotective factors include BDNF, glial-derived neurotrophic factor (GDNF), neurotrophin (NT)-3, NT-4/5, as well as caspase inhibitors ([Cheng et al., 2002; Kermer et al., 1998; Kurokawa et al., 1999; Monnier et al., 2011; Parrilla-Reverter et al., 2009]). Although intravitreal injections of BDNF protect 100% of RGC for 7 days, efficiency declines to 60% by 21 days. Most neuroprotective strategies tested support the survival of a maximum of 60% of RGC at 2 weeks after injury ([Cheng et al., 2002; Kermer et al., 1998; Kurokawa et al., 1999; Monnier et ...

For “^125I-labelled nerve growth factor: 125I-labelled nerve growth factor (26 kDa)”, the “time of peak accumulation in the retina and optic nerve” value in data set [1] is given as 6 h.

B1: CNTF: ciliary neurotrophic factor (Peprotech), positive control at 440.5 pM (protein, UniProt P26441 1-200, looked up)
Ciliary neurotrophic factor: MAFTEHSPLTPHRRDLCSRSIWLARKIRSDLTALTESYVKHQGLNKNINLDSADGMPVASTDQWSELTEAERLQENLQAYRTFHVLLARLLEDQQVHFTPTEGDFHQAIHTLLLQVAAFAYQIEELMILLEYKIPRNEADGMPINVGDGGLFEKKLWGLKVLQELSQWTVRSIHDLRFISSHQTGIPARGSHYIANNKKM
Consider B1, for which the “RGC axon regeneration after ONC” value in data set [2] is listed as “limited RGC axon regeneration”. For the same molecule, in data set [3], the “fold increase in βIII-tubulin+ neuron survival compared to untreated cultures” value is listed as 1.9 fold.

B2: full length PEDF: 50 kDa neurotrophic factor, member of the serpin superfamily (protein, UniProt P36955 1-418, looked up)
chain: MQALVLLLCIGALLGHSSCQNPASPPEEGSPDPDSTGALVEEEDPFFKVPVNKLAAAVSNFGYDLYRVRSSTSPTTNVLLSPLSVATALSALSLGAEQRTESIIHRALYYDLISSPDIHGTYKELLDTVTAPQKNLKSASRIVFEKKLRIKSSFVAPLEKSYGTRPRVLTGNPRLDLQEINNWVQAQMKGKLARSTKEIPDEISILLLGVAHFKGQWVTKFDSRKTSLEDFYLDEERTVRVPMMSDPKAVLRYGLDSDLSCKIAQLPLTGSMSIIFFLPLKVTQNLTLIEESLTSEFIHDIDRELKTVQAVLTVPKLKLSYEGEVTKSLQEMKLQSLFDSPDFSKITGKPIKLTQVEHRAGFEWNEDGAGTTPSPGLQPAHLTFPLDYHLNQPFIFVLRDTDTGALLFIGKILDPRGP
modifications: full-length
notes: 50 kDa neurotrophic factor, member of the serpin superfamily
As for B2, in data set [4], the “survival of RGCs from death” value is listed as 55%.

B3: BDNF: brain-derived neurotrophic factor (protein, UniProt P23560 19-247, looked up)
Neurotrophic factor BDNF …: APMKEANIRGQGGLAYPGVRTHGTLESVNGPKAGSRGLTSLADTFEHVIEELLDEDQKVRPNEENNKDADLYTSRVMLSSQVPLEPPLLFLLEEYKNYLDAANMSMRVRRHSDPARRGELSVCDSISEWVTAADKKTAVDMSGGTVTVLEKVPVSKGQLKQYFYETKCNPMGYTKEGCRGIDKRHWNSQCRTTQSYVRALTMDSKKRIGWRFIRIDTSCVCTLTIKRGR
For B3, the results for the RGC protected in data set [5] (7 days) and in data set [5] (by 21 days) were 100% and 60%, respectively.

Values taken from PMC4604765, “Eye drop delivery of pigment epithelium-derived factor-34 promotes retinal ganglion cell neuroprotection and axon regeneration” (Molecular and Cellular Neurosciences, 2015).
